# In patent publication US20240400677A1 (ELECTRA THERAPEUTICS, published 2024):
# T1: cynomolgus monkey SIRPγ-His monomer protein (cynomolgus monkey, UniProt Q9P1W8 29-359 (human entry), limits assumed)
# T1 construct: also called Cyno SIRPγ; Cyno SIRPγ-His
# T1 chain: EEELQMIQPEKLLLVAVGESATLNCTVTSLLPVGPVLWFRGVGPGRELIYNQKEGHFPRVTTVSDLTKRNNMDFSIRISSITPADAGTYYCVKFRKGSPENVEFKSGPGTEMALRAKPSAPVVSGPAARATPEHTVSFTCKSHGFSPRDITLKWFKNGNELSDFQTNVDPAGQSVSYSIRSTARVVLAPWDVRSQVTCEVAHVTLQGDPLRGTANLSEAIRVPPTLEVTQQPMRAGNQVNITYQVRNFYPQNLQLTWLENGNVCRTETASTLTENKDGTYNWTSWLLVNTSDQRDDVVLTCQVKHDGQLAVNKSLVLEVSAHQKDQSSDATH
# T2: cynomolgus monkey SIRPα on CHO cells (cynomolgus monkey, UniProt A0A2K5VYQ9 31-507)
# T2 construct: whole, on cells; also called Cyno SIRPα CHO
# T2 sequence: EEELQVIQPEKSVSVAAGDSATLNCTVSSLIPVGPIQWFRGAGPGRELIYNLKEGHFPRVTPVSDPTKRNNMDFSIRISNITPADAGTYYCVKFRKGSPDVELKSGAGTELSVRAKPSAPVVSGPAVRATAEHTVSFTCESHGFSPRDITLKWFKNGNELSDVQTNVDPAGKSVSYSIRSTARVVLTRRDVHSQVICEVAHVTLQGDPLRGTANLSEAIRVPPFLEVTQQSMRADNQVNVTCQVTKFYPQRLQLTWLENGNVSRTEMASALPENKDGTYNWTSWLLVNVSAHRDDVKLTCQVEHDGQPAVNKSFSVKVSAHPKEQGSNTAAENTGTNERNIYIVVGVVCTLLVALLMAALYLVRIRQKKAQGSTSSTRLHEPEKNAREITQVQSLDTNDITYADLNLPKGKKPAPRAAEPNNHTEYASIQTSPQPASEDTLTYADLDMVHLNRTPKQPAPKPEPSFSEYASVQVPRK
# T3: cynomolgus monkey SIRPγ on CHO cells (cynomolgus monkey, UniProt Q9P1W8 29-386 (human entry))
# T3 construct: also called Cyno SIRPγ CHO
# T3 chain: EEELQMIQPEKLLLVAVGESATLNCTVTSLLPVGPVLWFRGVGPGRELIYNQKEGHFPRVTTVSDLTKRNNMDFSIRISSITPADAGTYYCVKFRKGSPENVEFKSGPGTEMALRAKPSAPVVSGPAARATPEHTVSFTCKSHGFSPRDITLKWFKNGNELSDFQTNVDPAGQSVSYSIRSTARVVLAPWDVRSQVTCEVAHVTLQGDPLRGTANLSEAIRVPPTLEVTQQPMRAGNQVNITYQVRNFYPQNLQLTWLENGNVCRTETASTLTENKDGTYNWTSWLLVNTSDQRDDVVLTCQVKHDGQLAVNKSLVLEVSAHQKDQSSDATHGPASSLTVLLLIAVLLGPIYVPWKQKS
# T4: Cynomolgus Monkey SIRPγ (plate-coated extracellular domain)
# T4 construct: also called Cyno SIRPγ
# T4 extracellular domain: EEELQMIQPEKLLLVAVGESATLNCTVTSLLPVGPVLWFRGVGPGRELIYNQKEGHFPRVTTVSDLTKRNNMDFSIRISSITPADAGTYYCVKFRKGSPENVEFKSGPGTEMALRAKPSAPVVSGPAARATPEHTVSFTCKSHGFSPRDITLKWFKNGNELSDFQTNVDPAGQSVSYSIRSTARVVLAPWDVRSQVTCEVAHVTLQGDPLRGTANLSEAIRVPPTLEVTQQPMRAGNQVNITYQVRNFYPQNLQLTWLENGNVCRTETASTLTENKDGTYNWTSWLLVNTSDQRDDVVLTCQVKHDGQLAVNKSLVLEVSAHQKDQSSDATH
# Key:
# [1] = biological target: T1, cynomolgus monkey SIRPγ-His monomer …; test: BLI Octet, captured scFv PPE, cyno SIRP
# Summary of the method: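 Bio-layer interferometry used biotinylated anti-V5 on streptavidin sensors to capture V5-tagged scFv from crude periplasmic extract. Monomeric His-tagged SIRP protein at 500 nM was associated, then dissociated in wash buffer. Off-rate (kdis) was analyzed from the kinetic traces.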
# [2] = biological target: T5, human SIRPγ-His monomer protein (human, UniProt Q9P1W8 29-360); test: BLI Octet, V5-scFv PPE captured, SIRP-His 500 nM
# T5 construct: also called hSIRPγ
# [3] = biological target: T6, human SIRPβ1 on CHO cells (co-transfected with DAP12) (human, UniProt O00241 30-398); test: flow cytometry
# T6 construct: whole, on cells; co-transfected with DAP12; also called Human SIRPβ1 CHO
# [4] = biological target: T2, cynomolgus monkey SIRPα on CHO cells; test: flow cytometry
# [5] = biological target: T3, cynomolgus monkey SIRPγ on CHO cells; test: flow cytometry, myc-scFv PPE
# Summary of the method: (§1)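 Antibodies are titrated onto CHO cells stably expressing the SIRP protein, then detected with fluorescent anti-human IgG. MFI is plotted against concentration. Crude PPE containing myc-tagged scFv is tested against the same lines and parental CHO-K1, with fold change <2.0 taken as non-binding.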
# [6] = biological target: T7, human SIRPγ on stably transfected CHO cells (human, UniProt Q9P1W8 29-387); test: flow cytometry, myc-scFv PPE
# T7 construct: also called Human SIRPγ CHO
# Summary of the method: as §1
# [7] = biological target: T4, Cynomolgus Monkey SIRPγ (plate-coated …); test: ELISA, coated SIRP ECD (2 µg/mL), anti-human IgG, luminescence
# Method: (§2) Selected hybridoma supernatants of Example 1 were tested for binding to human SIRPγ, cynomolgus monkey SIRPγ, human SIRPα V1, cynomolgus monkey SIRPα, human SIRPβ1, and cynomolgus monkey SIRPβ1 by enzyme-linked immunosorbent assay (ELISA). Briefly, 2 μg/mL of the extracellular domain of SIRP protein was coated onto high protein-binding plates and blocked. Undiluted supernatants were added to coated plates. The antibodies were detected by an anti-rat antibody and a chemiluminescent substrate. […] The data depict the relative luminescence units read by a plate-reader capable of detecting chemiluminescence.
# (§3) FIGS. 2A-2G show binding curves of SIRPγ antibodies and human Fc isotype controls to human SIRPγ, cynomolgus monkey SIRPγ, human SIRPα V1, human SIRPα V2, and human SIRPβ1 by ELISA. […] Isotype control 2 was an unrelated human IgG1 antibody with irrelevant CDRs with no modifications in the Fc region. DNA was transiently transfected into Expi293F cells for 5 days. Antibodies were purified by Protein A from cell supernatants and analyzed in a titration via ELISA as previously described in FIG. 1 using an anti-human IgG antibody as the detection antibody.
# [8] = biological target: T8, extracellular binding domain of human SIRPγ (plate-coated) (human, UniProt Q9P1W8 29-360); test: as above
# T8 construct: also called hSIRPγ
# Method: as §2, §3
# [9] = biological target: T7, human SIRPγ on stably transfected CHO …; test: flow cytometry, CHO transfectants, anti-human IgG
# Summary of the method: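 CHO cells stably transfected with human SIRPγ, SIRPαV1 or SIRPβ1 (co-transfected with DAP12) were incubated with antibody titrations, with binding read by flow cytometry as median fluorescence intensity via labelled anti-rat or anti-human IgG secondary. Myc-tagged scFv crude PPE was also incubated with each line plus parental CHO-K1; fold change <2.0 = non-binder.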
# [10] = biological target: T2, cynomolgus monkey SIRPα on CHO cells; test: flow cytometry, CHO transfectants, anti-human IgG
# Summary of the method: as §1
# [11] = biological target: T6, human SIRPβ1 on CHO cells …; test: flow cytometry, CHO transfectants, anti-human IgG
# Summary of the method: as §1
# [12] = biological target: T9, bivalent human SIRPγ protein with mouse Fc (human, UniProt Q9P1W8 29-360); test: BLI Octet, antibody on AHC, global 1:2 model
# T9 construct: also called Human SIRPγ-mFc
# Method: (§4) Antibodies were coated onto anti-human Fc capture (AHC) biosensors. SIRP-His monomer protein or bivalent SIRP protein with mouse Fc at four concentrations (200 nM, 100 nM, 50 nM, 25 nM) were exposed to the biosensor to measure on-rate kinetics of SIRP antibodies binding to SIRP protein. The biosensors were then exposed to wash buffer to measure off-rate kinetics. The resulting kinetic data were analyzed and fitted using a global 1:2 binding model.
# [13] = biological target: T1, cynomolgus monkey SIRPγ-His monomer …; test: BLI Octet, antibody on AHC, global 1:2 model
# Method: as §4
# [14] = biological target: T5, human SIRPγ-His monomer protein; test: BLI Octet, antibody on AHC, global 1:2 model
# Method: as §4
# T6 sequence (O00241 30-398): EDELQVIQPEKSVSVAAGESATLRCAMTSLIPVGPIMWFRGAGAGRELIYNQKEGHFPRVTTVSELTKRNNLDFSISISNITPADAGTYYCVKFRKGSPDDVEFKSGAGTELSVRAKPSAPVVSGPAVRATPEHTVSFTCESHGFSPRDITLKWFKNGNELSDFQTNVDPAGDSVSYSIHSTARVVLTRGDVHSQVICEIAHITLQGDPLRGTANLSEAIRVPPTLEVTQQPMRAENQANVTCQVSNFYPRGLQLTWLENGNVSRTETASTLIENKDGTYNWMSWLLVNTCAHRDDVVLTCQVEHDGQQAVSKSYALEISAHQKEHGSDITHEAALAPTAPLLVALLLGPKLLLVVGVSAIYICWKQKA
# T7 sequence (Q9P1W8 29-387 limits assumed): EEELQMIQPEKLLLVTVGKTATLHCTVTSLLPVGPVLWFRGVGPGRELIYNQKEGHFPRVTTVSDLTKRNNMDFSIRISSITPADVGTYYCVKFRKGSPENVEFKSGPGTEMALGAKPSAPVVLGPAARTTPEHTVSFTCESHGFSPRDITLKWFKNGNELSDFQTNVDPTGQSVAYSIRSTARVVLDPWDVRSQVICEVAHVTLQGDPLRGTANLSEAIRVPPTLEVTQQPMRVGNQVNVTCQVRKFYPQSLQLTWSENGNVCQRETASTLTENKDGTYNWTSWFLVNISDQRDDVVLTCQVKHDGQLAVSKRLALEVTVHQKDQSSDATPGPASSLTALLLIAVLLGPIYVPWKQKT
# T5 sequence (Q9P1W8 29-360 limits assumed): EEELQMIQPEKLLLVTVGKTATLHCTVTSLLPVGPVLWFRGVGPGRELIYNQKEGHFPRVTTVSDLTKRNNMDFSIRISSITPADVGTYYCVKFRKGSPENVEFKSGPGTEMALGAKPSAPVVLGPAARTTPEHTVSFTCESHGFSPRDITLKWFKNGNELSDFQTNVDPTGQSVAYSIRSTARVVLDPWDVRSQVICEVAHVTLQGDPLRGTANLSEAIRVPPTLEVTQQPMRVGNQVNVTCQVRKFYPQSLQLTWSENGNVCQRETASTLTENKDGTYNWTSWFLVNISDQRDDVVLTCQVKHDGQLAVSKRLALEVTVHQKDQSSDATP
# T9 sequence (Q9P1W8 29-360 limits assumed): as above
# T8 sequence (Q9P1W8 29-360 limits assumed): as above
EC50 (read off the curve) [9] [µg/mL],binding result [10],binding result [11],Kd [12] [nM],Kd [13] [nM],Kd [14] [nM],Binder,other results
~0.5,no binding (tested: about 20 µg/mL),no binding (tested: about 20 µg/mL),–,–,–,"Antibody 73 (antibody, V domains shown) VH: QVQLVQSGAEVKKPGASVKVSCKASGGTFSSYDINWVRQAPGQGLEWMGWMNPNSGNTGYAQKFQGRVTMTRDTSTSTVYMELSSLRSEDTAVYYCARDLTLYCSSTSCLDAFDYWGQGTLVTVSS VL: not shown",EC50 (read off the curve) [7]: ~0.05 µg/mL; EC50 (read off the curve) [8]: ~0.03 µg/mL
–,no binding (tested: about 30 µg/mL),no binding (tested: about 30 µg/mL),9.03,2960,12.3,"Antibody 92 (antibody, V domains shown) VH: QVQLVQSGAEVKKPGASVKVSCKASGGTFSSYDINWVRQAPGQGLEWMGWMNPNSGNTGYAQKFQGRVTMTRDTSTSTVYMELSSLRSEDTAVYYCARDLTLYCSSTSCLDAFDYWGQGTLVTVSS VL: not shown",–
~0.5,no binding (tested: about 20 µg/mL),no binding (tested: about 20 µg/mL),–,–,–,"Antibody 65 (antibody, V domains shown) VH: QVQLVQSGAEVKKPGASVKVSCKASGYTFTSHDINWVRQAPGQGLEWMGWMNANNGNAGYAQKFQGRVTMTRDTSTSTVYMELSSLRSEDTAVYYCAKDLSPSSSWSTYYYYYGMDVWGQGTMVTVSS VL: DIQMTQSPSSLSASVGDRVTITCRASQSISNLLAWYQQKPGKAPKLLIYAASSLQSGVPSRFSGSGSGTDFTLTISSLQPEDFATYYCQQSYSTPYTFGQGTKLEIK",–

# The remaining lines, values behind:
Binder,EC50 (read off the curve) [9] [µg/mL],binding result [10],binding result [11],Kd [12] [nM],Kd [13] [nM],Kd [14] [nM],other results
"Antibody 31 (scFv, V domains shown, scFv in crude PPE, V5/myc-tagged) VH: QVQLVQSGAEVKKPGASVKVSCKASGGTFRSYAISWVRQAPGQGLEWMGWMNPNSGNTGYAQKFQGRVTMTRDTSTSTVYMELSSLRSEDTAVYYCARESVLKGGMDVWGQGTTVTVSS VL: DIVMTQSPDSLAVSLGERATINCRSSQSLFHSSTNANNLAWYQQKPGQPPKLLIYWASTRESGVPDRFSGSGSGTDFTLTISSLQAEDVAVYYCQQYYITPLTFGQGTRLEIK",–,–,–,–,–,–,binding result [1]: binds; kdis [2]: 0.001 to 0.01 s⁻¹; binding result [3]: no binding (tested: fold change <2.0); binding result [4]: no binding (tested: fold change <2.0); MFI fold change over parental CHO [5]: 21.3 fold; MFI fold change over parental CHO [6]: 18.1 fold
"Antibody 71 (antibody, V domains shown) VH: QVQLVQSGAEVKKPGASVKVSCKASGYTFTSYYIHWVRQAPGQGLEWMGTINPSGGSTSYAQKFQGRVTMTRDTSTSTVYMELSSLRSEDTAVYYCARETSRWLRDYYYGMDVWGQGTTVTVSS VL: DIVMTQSPLSLPVTPGEPASISCRSSQSLLHSNGYNYLDWYLQKPGQSPQLLIYDASSLESGVPDRFSGSGSGTDFTLKISRVEAEDVGVYYCMQGTHWPLTFGGGTKVEIK",~0.1,no binding (tested: about 20 µg/mL),–,–,–,–,EC50 (read off the curve) [7]: ~0.02 µg/mL; EC50 (read off the curve) [8]: ~0.02 µg/mL
"Antibody 85 (antibody, V domains shown) VH: QVQLVQSGAEVKKPGASVKVSCKASGYTFTSYDINWVRQAPGQGLEWMGWMNPNSGNTGYAQKFQGRVTMTRDTSTSTVYMELSSLRSEDTAVYYCARESYAYCSSTSCYDAFDIWGQGTMVTVSS VL: not shown",–,no binding (tested: about 30 µg/mL),no binding (tested: about 30 µg/mL),35.6,96.1,96.9,–
"Antibody 30 (scFv, V domains shown, scFv in crude PPE, V5/myc-tagged) VH: QVQLVQSGAEVKKPGASVKVSCKASGYTFTNFDINWVRQAPGQGLEWMGWISAYNGHTNYAQNLQGRVTMTRDTSTSTVYMELSSLRSEDTAVYYCAQEAAAGYFDYWGQGTLVTVSS VL: DIQMTQSPSSLSASVGDRVTITCRASQDIRNDLAWYQQKPGKAPKLLIYDASNLETGVPSRFSGSGSGTDFTLTISSLQPEDFATYYCQQSYGTPYTFGQGTKLEIK",–,–,–,–,–,–,binding result [1]: binds; kdis [2]: 0.001 to 0.01 s⁻¹; binding result [3]: no binding (tested: fold change <2.0); binding result [4]: no binding (tested: fold change <2.0); MFI fold change over parental CHO [5]: 3.76 fold; MFI fold change over parental CHO [6]: 5.94 fold
"Antibody 86 (antibody, V domains shown) VH: EVQLLESGGGLVQPGGSLRLSCAASGFTLGSYWMHWVRQAPGKGLEWVSLISWDGGSTYYADSVKGRFTISRDNSKNTLYLQMNSLRAEDTAVYYCAKGPWVGYSGYDLNYYYYGMDVWGQGTTVTVSS VL: DIQMTQSPSSLSASVGDRVTITCRASQDIRRALAWYQQKPGKAPKLLIYAASSLQSGVPSRFSGSGSGTDFTLTISSLQPEDFATYYCLQHNSYPPTFGQGTKLEIK",–,–,–,3.92,48.2,56.1,–
